T1: MDA5(R337G) (human, UniProt Q9BYX4 1-1025, R337G, Cy3 on a peptide (Cy3-CLPETGG) ligated by sortase; used unlabelled in some experiments)
T1 sequence (looked up): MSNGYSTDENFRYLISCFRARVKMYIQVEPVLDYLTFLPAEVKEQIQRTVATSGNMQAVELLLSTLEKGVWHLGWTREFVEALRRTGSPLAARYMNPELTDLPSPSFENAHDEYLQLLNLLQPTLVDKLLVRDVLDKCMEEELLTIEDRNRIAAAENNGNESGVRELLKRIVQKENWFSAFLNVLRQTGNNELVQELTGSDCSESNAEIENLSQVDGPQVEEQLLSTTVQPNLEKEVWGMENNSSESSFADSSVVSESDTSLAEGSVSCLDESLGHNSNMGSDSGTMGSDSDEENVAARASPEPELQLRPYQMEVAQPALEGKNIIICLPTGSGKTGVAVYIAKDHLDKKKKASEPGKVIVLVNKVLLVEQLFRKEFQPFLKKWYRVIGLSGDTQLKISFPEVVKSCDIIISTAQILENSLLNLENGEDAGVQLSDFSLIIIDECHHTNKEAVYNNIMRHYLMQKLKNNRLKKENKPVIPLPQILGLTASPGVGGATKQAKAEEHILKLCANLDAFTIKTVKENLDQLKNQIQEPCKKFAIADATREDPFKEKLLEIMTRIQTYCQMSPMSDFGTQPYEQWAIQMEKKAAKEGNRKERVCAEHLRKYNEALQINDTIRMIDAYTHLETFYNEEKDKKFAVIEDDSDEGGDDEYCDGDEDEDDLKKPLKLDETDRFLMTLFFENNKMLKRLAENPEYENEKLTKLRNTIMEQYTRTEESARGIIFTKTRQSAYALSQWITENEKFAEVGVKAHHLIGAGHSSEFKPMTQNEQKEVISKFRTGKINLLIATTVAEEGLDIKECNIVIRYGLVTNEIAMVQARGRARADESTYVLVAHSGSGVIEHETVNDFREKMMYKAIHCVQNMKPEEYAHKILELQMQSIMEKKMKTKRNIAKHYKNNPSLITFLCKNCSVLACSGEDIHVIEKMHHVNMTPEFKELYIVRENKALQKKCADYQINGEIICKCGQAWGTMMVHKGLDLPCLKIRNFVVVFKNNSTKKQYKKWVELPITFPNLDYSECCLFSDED

T2: MDA5(M854K) (human, UniProt Q9BYX4 1-1025, M854K, Cy3 on a peptide (Cy3-CLPETGG) ligated by sortase; used unlabelled in some experiments)
T2 sequence (looked up): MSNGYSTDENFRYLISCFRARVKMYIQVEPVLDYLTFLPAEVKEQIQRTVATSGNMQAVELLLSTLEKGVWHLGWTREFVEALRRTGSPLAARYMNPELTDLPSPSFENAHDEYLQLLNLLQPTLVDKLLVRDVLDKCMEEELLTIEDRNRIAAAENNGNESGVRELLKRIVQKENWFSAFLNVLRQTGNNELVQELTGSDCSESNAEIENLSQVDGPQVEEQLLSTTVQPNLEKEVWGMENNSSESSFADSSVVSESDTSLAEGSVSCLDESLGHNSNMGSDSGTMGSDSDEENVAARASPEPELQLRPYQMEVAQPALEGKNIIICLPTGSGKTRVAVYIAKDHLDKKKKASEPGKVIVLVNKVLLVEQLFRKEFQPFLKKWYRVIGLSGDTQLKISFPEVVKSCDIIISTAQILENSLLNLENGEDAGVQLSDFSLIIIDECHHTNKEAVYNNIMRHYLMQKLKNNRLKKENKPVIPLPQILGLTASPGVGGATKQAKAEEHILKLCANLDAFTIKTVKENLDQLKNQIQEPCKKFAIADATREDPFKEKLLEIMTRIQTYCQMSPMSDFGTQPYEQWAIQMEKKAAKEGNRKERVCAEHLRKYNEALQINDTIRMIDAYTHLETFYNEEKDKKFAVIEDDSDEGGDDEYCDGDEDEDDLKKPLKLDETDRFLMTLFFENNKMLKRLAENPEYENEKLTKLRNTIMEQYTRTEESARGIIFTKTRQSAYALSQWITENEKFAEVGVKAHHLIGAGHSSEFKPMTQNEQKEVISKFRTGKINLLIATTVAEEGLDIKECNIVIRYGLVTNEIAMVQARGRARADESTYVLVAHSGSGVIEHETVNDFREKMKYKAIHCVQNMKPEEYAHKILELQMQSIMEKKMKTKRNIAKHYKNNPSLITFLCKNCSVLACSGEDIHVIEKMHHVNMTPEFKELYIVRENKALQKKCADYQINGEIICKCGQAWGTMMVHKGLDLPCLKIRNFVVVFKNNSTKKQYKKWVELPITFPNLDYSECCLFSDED


Assays:
Settings in all cases: both partners purified
MDA5(R337G) [1] = target: T1, MDA5(R337G); experiment: single-molecule TIRF imaging (smTIRF) on dsRNA; MAVS-CARD recruitment without LGP2: Cy3-MDA5, Cy3-MDA5(R337G) or Cy3-MDA5(M854K) (100 nM) and AF647-MAVS-CARD (100 nM) on 11.6-kb dsRNA; Imaging Buffer with 2 mM ATP, 23 °C
MDA5(M854K) [2] = target: T2, MDA5(M854K); experiment: as above
MDA5(R337G) [3] = target: T1, MDA5(R337G); experiment: single-molecule TIRF imaging (smTIRF) on dsRNA; 60 nM Cy3-LGP2 with or without 60 nM unlabelled MDA5, MDA5(R337G) or MDA5(M854K) on stretched, surface-anchored 11.6-kb dsRNA; Imaging Buffer (20 mM Tris-HCl pH 7.5, 100 mM NaCl, 1.5 mM MgCl2, 2 mM ATP unless stated otherwise), 23 °C
MDA5(M854K) [4] = target: T2, MDA5(M854K); experiment: as above

| binding result (MDA5(R337G) [1]) | binding result (MDA5(M854K) [2]) | binding result (MDA5(R337G) [3]) | binding result (MDA5(M854K) [4]) | Binder |
| --- | --- | --- | --- | --- |
| binds | binds |  |  | MAVS-CARD(D23K/E26K/E80K) (domain or fragment, UniProt Q7Z434 1-97, looked up, Alexa Fluor 647 (SNAP-Surface Alexa Fluor 647 substrate) on the SNAP-tag, pET47b plasmid from the Sun Hur lab; also called AF647-MAVS-CARD; not shown: SNAP-tag, C-terminal, kept) MPFAEDKTYKYICRNFSNFCNVKVVKILPYLPCLTARDQDRLRATCTLSGNRDTLWHLFNTLQRRPGWVEYFIAALRGCKLVDLADEVASVYQSYQP |
|  |  | binds | binds | human LGP2 (natural protein, UniProt Q96C10 1-678, looked up, Cy3 or Cy5 on a peptide (GGGC-Cy3/Cy5) ligated by sortase; used unlabelled in some experiments) MELRSYQWEVIMPALEGKNIIIWLPTGAGKTRAAAYVAKRHLETVDGAKVVVLVNRVHLVTQHGEEFRRMLDGRWTVTTLSGDMGPRAGFGHLARCHDLLICTAELLQMALTSPEEEEHVELTVFSLIVVDECHHTHKDTVYNVIMSQYLELKLQRAQPLPQVLGLTASPGTGGASKLDGAINHVLQLCANLDTWCIMSPQNCCPQLQEHSQQPCKQYNLCHRRSQDPFGDLLKKLMDQIHDHLEMPELSRKFGTQMYEQQVVKLSEAAALAGLQEQRVYALHLRRYNDALLIHDTVRAVDALAALQDFYHREHVTKTQILCAERRLLALFDDRKNELAHLATHGPENPKLEMLEKILQRQFSSSNSPRGIIFTRTRQSAHSLLLWLQQQQGLQTVDIRAQLLIGAGNSSQSTHMTQRDQQEVIQKFQDGTLNLLVATSVAEEGLDIPHCNVVVRYGLLTNEISMVQARGRARADQSVYAFVATEGSRELKRELINEALETLMEQAVAAVQKMDQAEYQAKIRDLQQAALTKRAAQAAQRENQRQQFPVEHVQLLCINCMVAVGHGSDLRKVEGTHHVNVNPNFSNYYNVSRDPVVINKVFKDWKPGGVISCRNCGEVWGLQMIYKSVKLPVLKVRSMLLETPQGRIQAKKWSRVPFSVPDFDFLQHCAENLSDLSLD |

— publication PMC12589613, “ATP-dependent one-dimensional movement maintains immune homeostasis by suppressing spontaneous MDA5 filament assembly” (Cell Research, 2025)
